Measured values published in US10502741B2, “Means and methods for detecting activated MALT1” (Helmholtz Zentrum München Deutsches Forschungszentrum für …, priority 2014, dated 2019).
The star is where a group is joined. BODIPY(FL) = CC1=CC(C)=[N+]2C1=Cc1ccc(CCC(=O)*)n1[B-]2(F)F; AOMK = acyloxymethyl ketone C-terminal warhead; alkyne = not defined here

Experiments:
[1] = biological target: T1, active MALT1 (Homo sapiens, UniProt Q9UDY8); assay: Labeling with diagnostic inhibitor in cell extracts (gel-based, fluorescence scan): active MALT1 band
T1 construct: endogenous in cells; host or cells: Jurkat T cells, primary human PBMCs and T cells, DLBCL cell lines (HBL1, TMD8, OCI-Ly3, OCI-Ly10, U2932, RIVA, BJAB, Su-DHL-4, Su-DHL-6)
T1 sequence (Q9UDY8 1-824): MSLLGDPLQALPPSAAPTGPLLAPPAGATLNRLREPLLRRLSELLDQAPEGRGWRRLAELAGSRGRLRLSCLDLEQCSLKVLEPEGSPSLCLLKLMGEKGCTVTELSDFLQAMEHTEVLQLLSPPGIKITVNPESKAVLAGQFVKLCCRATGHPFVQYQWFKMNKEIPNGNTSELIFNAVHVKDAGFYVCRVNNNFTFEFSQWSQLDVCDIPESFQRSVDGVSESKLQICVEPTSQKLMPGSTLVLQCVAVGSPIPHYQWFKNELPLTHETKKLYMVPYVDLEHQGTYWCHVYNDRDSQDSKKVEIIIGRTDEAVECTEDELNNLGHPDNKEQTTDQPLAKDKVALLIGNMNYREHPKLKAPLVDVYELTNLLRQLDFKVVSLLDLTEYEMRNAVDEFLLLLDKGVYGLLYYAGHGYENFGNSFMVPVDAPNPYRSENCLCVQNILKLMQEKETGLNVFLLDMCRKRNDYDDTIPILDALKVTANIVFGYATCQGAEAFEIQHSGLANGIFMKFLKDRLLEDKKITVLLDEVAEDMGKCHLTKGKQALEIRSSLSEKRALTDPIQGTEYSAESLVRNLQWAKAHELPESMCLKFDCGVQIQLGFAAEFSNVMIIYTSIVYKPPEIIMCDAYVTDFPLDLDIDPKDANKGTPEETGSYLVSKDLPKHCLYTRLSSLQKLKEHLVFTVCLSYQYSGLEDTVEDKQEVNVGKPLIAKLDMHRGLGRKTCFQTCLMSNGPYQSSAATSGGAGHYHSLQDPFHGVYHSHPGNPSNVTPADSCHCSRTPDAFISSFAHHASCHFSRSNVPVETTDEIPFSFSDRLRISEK
Method: (§1) Jurkat T cells were cultured in standard RPMI medium containing 10% FCS, 100 U/ml Penicillin/Streptomycin and 2 mM Glutamin. DNA transfection of 6 μg DNA in 8×10^6 Jurkat T cells was performed by electroporation in a GenePulser Xcell (BioRad) with a 220 Volt pulse. For siRNA experiments, Jurkat T cells were transfected with 100 nM siRNA and Atufect transfection reagent (Silence Therapeutics, Berlin). Jurkat T cells were stimulated either with 200 ng/ml PMA (phorbol 12-myristate 13-acetate) and 300 ng/ml Ionomycin (both Calbiochem) or CD3/CD28 antibody co-ligation (human CD3: 1 μg/ml; human CD28: 4 μg/ml; mouse IgG1: 2 μg/ml; mouse IgG2a: 2 μg/ml; BD Biosciences). DLBCL cell lines (HBL1, TMD8, OCI-Ly3, U2932, RIVA, BJAB, Su-DHL-4 and Su-DHL-6) were cultured in standard RPMI medium containing 20% FCS, 100 U/ml Penicillin/Streptomycin and 2 mM Glutamin. OCI-Ly10 cell line was cultured in IMDM containing 20% human serum, 100 U/ml Penicillin/Streptomycin, 2 U/ml heparine, 50 μM β-mercaptoethanol. Inhibitors 10 μM (z-VRPR-FMK, Mepazine, Thioridazine, CA-074Me) were added to the cells in media for 1 h, prior to stimulation and labeling with diagnostic MALT1 inhibitor.
(§2) Jurkat T cells (1-2×10^7), primary human PBMCs or primary human T cells (0.25 or 1×10^7) were lysed in 150 μl co-IP buffer without protease inhibitors. DLBCL (3×10^7) were lysed in 250 μl buffer. After centrifugation (14000 rpm, 10 min, 4° C.), 100 μl extract (DLBCL: 200 μl) was stained with probe 5 or probe 6 (3 μM end) for 50 min at 29° C., mixed with 4× loading dye and boiled.

[2] = biological target: T1, active MALT1; assay: as above; conditions: 2×10^6 primary human T cells, 3 μM probe
[3] = biological target: cathepsin B (Homo sapiens, UniProt P07858); assay: Labeling with diagnostic inhibitor in cell extracts (gel-based, fluorescence scan): about 30 kDa cathepsin B band; set-up: endogenous in cells; host or cells: Jurkat T cells; HBL1 and other DLBCL cell lines; conditions: Jurkat T cells, whole cell extract
Method: as §1, §2

[4] = biological target: T2, FLAG-MALT1 wt (Homo sapiens, UniProt Q9UDY8); assay: Labeling with diagnostic MALT1 inhibitor after immunoprecipitation (gel-based, fluorescence scan); assay type: binding; conditions: probe pre-clicked to TAMRA, after FLAG immunoprecipitation in Jurkat T cells
T2 construct: expressed in transfected cells; host or cells: Jurkat T cells (pEF vector, electroporation)
T2 sequence (Q9UDY8 1-813 isoform Q9UDY8-2): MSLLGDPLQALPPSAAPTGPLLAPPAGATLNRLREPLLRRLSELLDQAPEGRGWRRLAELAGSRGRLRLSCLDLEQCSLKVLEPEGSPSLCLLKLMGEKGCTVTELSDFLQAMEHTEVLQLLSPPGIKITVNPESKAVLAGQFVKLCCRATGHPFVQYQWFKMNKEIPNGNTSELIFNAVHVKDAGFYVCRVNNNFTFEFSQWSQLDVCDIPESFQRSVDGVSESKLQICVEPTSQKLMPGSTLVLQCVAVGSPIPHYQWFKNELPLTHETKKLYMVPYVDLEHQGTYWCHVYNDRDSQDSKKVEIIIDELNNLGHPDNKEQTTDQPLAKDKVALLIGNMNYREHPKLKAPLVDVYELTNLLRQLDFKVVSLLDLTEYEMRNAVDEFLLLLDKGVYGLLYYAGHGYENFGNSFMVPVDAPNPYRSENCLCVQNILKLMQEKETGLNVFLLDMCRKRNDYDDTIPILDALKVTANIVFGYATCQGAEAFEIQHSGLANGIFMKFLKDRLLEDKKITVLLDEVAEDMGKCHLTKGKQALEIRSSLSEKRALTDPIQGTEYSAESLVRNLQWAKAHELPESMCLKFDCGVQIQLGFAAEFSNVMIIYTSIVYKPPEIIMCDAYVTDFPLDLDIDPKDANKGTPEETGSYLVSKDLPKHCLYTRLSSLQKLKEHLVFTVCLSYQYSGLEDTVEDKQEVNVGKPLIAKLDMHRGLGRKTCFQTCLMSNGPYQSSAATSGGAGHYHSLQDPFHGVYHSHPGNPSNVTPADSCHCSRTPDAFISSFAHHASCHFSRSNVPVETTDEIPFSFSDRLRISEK
Method: Jurkat T cells, transfected with active FLAG-[…] wt or active site mutant C464A, were stained after lysis and IP with probe 2, pre-clicked to TAMRA. Analysis was done by fluorescence staining.
Copper I-catalysed click chemistry reaction was performed in 50 μl 50 mM hepes with 10 μM alkyne-LRSR-AOMK (probe 2) and 10 μM N-TAMRA-3-aminopropylazide or 100 μM N-FITC-3-aminopropylazide. Reducing agent sodium ascorbate (0.5 mM), TBTA (50 μM) and CuSO4 (1 mM) were added to the reaction and incubated for 45 min at RT.
Cells were lysed in 500 μl co-IP buffer without protease inhibitors (25 mM hepes pH 7.5, 150 mM NaCl, 0.2% NP-40, 10% glycerol, 1 mM DTT, 10 mM sodium fluoride, 8 mM (3-glycerophosphate and 300 μM sodium vanadate), centrifuged (14000 rpm, 10 min, 4° C.) and overexpressed FLAG MALT1 was immunoprecipitated by FLAG (M2) antibody for 3 hours at 4° C. PGS was added for 1 h at 4° C., precipitate was washed 2× with co-IP buffer and 1× with 50 mM hepes pH 7.4. Precipitated MALT1 was incubated with 0.3 μM pre-clicked probe 2 (in 20 μl 50 mM hepes pH 7.4) for 50 min at 29° C., mixed with 4× loading dye and boiled for 3 min. After protein separation by SDS PAGE, staining with diagnostic inhibitor was detected by Typhoon Fluorescence Scanner (FITC laser 488 nm/filter 526 SP; TAMRA laser 532 nm/filter 580 BP).

Substance | active MALT1 signal in lymphoma whole cell extracts ([1]; ABC DLBCL cells (HBL1 for probe 6)) | active MALT1 labeling compared with probe 5 ([1]; Jurkat T cells, whole cell extract) | MALT1-probe complex in ABC DLBCL cells ([1]; panel of ABC DLBCL pretreated with CA-074Me, whole cell lysates, no stimulation) | MALT1-probe labeling in GCB DLBCL cells ([1]; panel of GCB DLBCL pretreated with CA-074Me, whole cell lysates) | active MALT1 signal in primary human T cells, gel-based [2] | cathepsin B labeling compared with probe 5 [3] | labeling of overexpressed FLAG-MALT1 wt versus catalytic inactive mutant [4]
(BODIPY-FL)-LRSR-AOMK ({BODIPY(FL)}-LRSR-{AOMK}) [probe 6] | weakly labeled active MALT1 | slightly more effective in active MALT1 labeling | detected even in the absence of any stimulation | all negative | weak active MALT1 signal | cathepsin B labeling was even reduced | –
alkyne-LRSR-AOMK (alkyne-LRSR-{AOMK}; not fully specified; reading uncertain) [probe 2, used pre-clicked to TAMRA] | – | – | – | – | – | – | FLAG-MALT1 wt but not the catalytic inactive mutant was detected
